# T1: lysyl oxidase (LO) (Bos taurus, UniProt P33072)
# T1 construct: per mature LO molecule (32 kD); from tissue
# T1 sequence (P33072 170-418): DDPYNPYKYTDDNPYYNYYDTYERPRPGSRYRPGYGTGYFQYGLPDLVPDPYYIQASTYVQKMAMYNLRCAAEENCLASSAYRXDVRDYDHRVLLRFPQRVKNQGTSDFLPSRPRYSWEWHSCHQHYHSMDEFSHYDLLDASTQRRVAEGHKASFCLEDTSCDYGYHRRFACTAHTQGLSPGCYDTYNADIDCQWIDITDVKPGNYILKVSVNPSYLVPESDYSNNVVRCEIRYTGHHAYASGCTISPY
# Biological target: T1, lysyl oxidase (LO)
# Assay: LO-dependent H2O2 release, horseradish peroxidase-coupled fluorescence assay (substrate potential for LO)
# Type: biochemical
# Details: for substrate of LO (in words): factor as sole substrate, LO-dependent H2O2 release in vitro; for Oxidized Lysines per Molecule 37° C. / Oxidized Lysines per Molecule 55° C.: oxidation by LO in vitro; for Oxidized Lysines per Molecule 37° C.: 37° C. (molar ratio of H2O2 released per molecule of substrate)
# Description: The oxidation of a primary amine substrate by LO yields stoichiometric amounts of the corresponding aldehyde, hydrogen peroxide and ammonia, as shown: RCH2NH2+O2+H2O→RCHO+H2O2+NH3 (Kagan, 1986). To assess the substrate potential of FGF2, LO-dependent H2O2 release was monitored in assays using FGF2 as the sole substrate, using both the optimum temperature for LO activity of 55° C. and the physiological temperature of 37° C. (Trackman et al., 1981).
# LO reaction with FGF2 as a substrate was assessed by a horseradish peroxidase-coupled fluorescence assay for H2O2 production. Reaction mixtures contained 0.25 mg of sodium homovanillate(HVA), 40 μg of HRP, and FGF2 at doses as indicated below in 0.05 M sodium borate buffer, pH 8.2, in a final volume of 2 ml. Assays were initiated by the addition of LO to reaction mixtures. H2O2 release was continuously monitored at excitation and emission wavelengths of 315 and 425 nm, respectively, at a constant temperature of 55° C. or 37° C., as specified, in the thermostatted cuvette chamber of an SLM Aminco Bowman Series 2 Luminescence Spectrometer. All activity data were corrected for background rates of H2O2 release determined in complete assay mixtures supplemented with 200 μM BAPN, an irreversible inhibitor of LO. In FIG. 4, solid curves represent the time course of H2O2 release at 55° C. in the reaction of 0.16 μM LO with 0.23 (a), 0.45 (b) and 0.9 (c) μM FGF2, respectively. Dotted curve (d) represents the time course of H2O2 release in the reaction of 0.16 μM LO with 0.9 μM FGF2 at 37° C. The same data were obtained from three separate experiments.
# Using the fluorometric assay (Trackman et al., 1981) to monitor LO-dependent H2O2 release in vitro, the substrate potential of other growth factors was also assessed. Major members of the FGF family tested included FGF 1, 4, 5, 6, 7 and EGF (note: All factors are human recombinant forms purchased from R & D Systems, Inc., Minneapolis, Minn.).
# A human recombinant disulfide-linked dimer of VEGF165 (MW: 42 kDa)(R & D Systems) as a sole substrate was tested by using the standard in vitro LO catalysis assays as described above for FIG. 4 (Trackman et al., 1981). Curves represent the time course of H2O2 release at 55° C. (a) or 37° C. (b) in the reaction of 0.10 μM LO with 0.45 μM VEGF165. All activity data were corrected for background rates of H2O2 release determined in complete assay mixtures supplemented with the same amounts of LO preincubated with 100 μM BAPN for 15 min at 37° C. The same data were obtained from three separate experiments.
# The standard in vitro LO catalysis assays as described above for FIG. 4 (Trackman et al., 1981) using human recombinant PDGF-AB (R & D Systems) as a sole substrate was tested. […] In FIG. 19, curves represent the time course of H2O2 release at 55° C. (a) and 37° C. (b) in the reaction of 0.11 μM LO with 0.46 μM PDGF-AB, respectively. All activity data were corrected for background rates of H2O2 release determined in complete assay mixtures supplemented with the same amounts of LO preincubated with 100 μM BAPN for 15 minutes at 37° C. The same data were obtained from three separate experiments.
# To analyze the substrate potential of Tat, the standard in vitro LO catalysis assays as described in FIG. 4 (Trackman et al., 1981) was performed at the optimum temperature of 55° C. and at the physiological temperature of 37° C. A recombinant Tat with 9 lysines in a total of 86 amino acids was used as a sole substrate. FIG. 12A represents a dose and temperature-dependent response. Curves represent the time course of H2O2 release at 55° C. (solid) or 37° C. (dotted) in the reaction of 0.10 μM LO with 0.22 (a and d), 0.43 (b and e) and 0.85 (c and f) μM Tat, respectively. All activity data were corrected for background rates of H2O2 release determined in complete assay mixtures supplemented with the same amounts of LO preincubated with 100 μM BAPN for 15 min at 37° C. […]
substrate of LO (in words),Oxidized Lysines per Molecule 37° C.,Oxidized Lysines per Molecule 55° C.,Molecule
substrates of LO,3.1,7.2,"FGF6: human recombinant fibroblast growth factor 6 (R & D Systems) (protein, UniProt P10767 38-208, looked up) Fibroblast growth factor 6: SPAGTRANNTLLDSRGWGTLLSRSRAGLAGEIAGVNWESGYLVGIKRQRRLYCNVGIGFHLQVLPDGRISGTHEENPYSLLEISTVERGVVSLFGVRSALFVAMNSKGRLYATPSFQEECKFRETLLPNNYNAYESDLYQGTYIALSKYGRVKRGSKVSPIMTVTHFLPRI"
substrates of LO,10.0,18.0,"FGF5: human recombinant fibroblast growth factor 5 (R & D Systems) (protein, UniProt P12034 21-268, looked up) Fibroblast growth factor 5: HGEKRLAPKGQPGPAATDRNPRGSSSRQSSSSAMSSSSASSSPAASLGSQGSGLEQSSFQWSPSGRRTGSLYCRVGIGFHLQIYPDGKVNGSHEANMLSVLEIFAVSQGIVGIRGVFSNKFLAMSKKGKLHASAKFTDDCKFRERFQENSYNTYASAIHRTEKTGREWYVALNKRGKAKRGCSPRVKPQHISTHFLPRFKQSEQPELSFTVTVPEKKKPPSPIKPKIPLSAPRKNTNSVKYRLKFRFG"
substrates of LO,3.6,14.5,"FGF4: human recombinant fibroblast growth factor 4 (R & D Systems) (protein, UniProt P08620 31-206, looked up) Fibroblast growth factor 4: APTAPNGTLEAELERRWESLVALSLARLPVAAQPKEAAVQSGAGDYLLGIKRLRRLYCNVGIGFHLQALPDGRIGGAHADTRDSLLELSPVERGVVSIFGVASRFFVAMSSKGKLYGSPFFTDECTFKEILLPNNYNAYESYKYPGMFIALSKNGKTKKGNRVSPTMKVTHFLPRL"
